This note sets out measurements from publication PMC5426754.

In experiment [1] the target is S100A4-Δ9 (S100A4 C-terminally truncated by 9 residues) (UniProt P26447). Description: NMR titration; unlabeled C-ERMAD (7.5 mM stock) added gradually to 15N-labeled S100A4-Δ9 dimer (250 μM) up to 2.1:1; 1H-15N HSQC, 700 MHz, 300 K; 20 mM MES pH 6.0, 150 mM NaCl, 10 mM CaCl2, 5 mM TCEP; ten shifting peaks fitted to a quadratic binding equation.
Experiment [2] deals with S100A4 (metastasin), wild type (UniProt P26447). Description: fluorescence polarisation; competitive FP; 50 nM Fl-NMIIA complexed with 4 μM S100A4 dimer titrated with ezrin constructs; competition binding equation; triplicates. Background: Polarisation of emitted light reports the rotation of a fluorescent probe.
S100A4 (metastasin), wild type (UniProt P26447), sequence (P26447 whole entry): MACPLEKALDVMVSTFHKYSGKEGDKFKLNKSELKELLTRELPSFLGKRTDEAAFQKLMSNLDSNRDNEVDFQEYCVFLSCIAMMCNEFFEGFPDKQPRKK
Experiment [3] has the same target. Described as above. This is another data set of the same source.
Experiment [4] addresses Fl-C-ERMAD^516–560 (fluorescently labeled, Cys-Lys516-Leu560) (human). Put plainly: fluorescence polarisation; direct FP; 50 nM fluorescent tracer (Fl-C-ERMAD variants or Fl-NMIIA) titrated with S100 proteins or N-ERMAD; 20 mM HEPES pH 7.5, 150 mM NaCl, 0.1 mM TCEP, 1 mM CaCl2, 0.05% Tween-20; triplicates; quadratic binding equation.

Read-outs that look alike come from different tables or passages of the source.

S100A4 (metastasin), wild type (from UniProt P26447 1-101) (natural protein), sequence (P26447 whole entry): as above
Ezrin C-ERMAD (Cys-Lys516-Leu586), unlabeled, sequence (P15311 other isoform, or with tags, fused parts or gaps): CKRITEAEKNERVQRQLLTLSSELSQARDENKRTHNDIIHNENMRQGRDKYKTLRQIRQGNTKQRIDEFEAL

Consider “Ezrin C-ERMAD (Cys-Lys516-Leu586), unlabeled (from UniProt P15311 516-586) (domain or fragment)”, for which, in experiment [1], the Kd was found to be 10.8 µM.

On to “Ezrin C-ERMAD^516–560 (Cys-Lys516-Leu560), unlabeled (domain or fragment)”, for which the Kd in experiment [2] was found to be 28.6 µM; in experiment [3], 27.6 µM.

Substance “S100A4 (metastasin), wild type (from UniProt P26447 1-101) (natural protein)” came in with a Kd in experiment [4] of 8.4 µM.

What is called Kd is the equilibrium constant for the complex coming apart.
